Source: EP4386000A1 (Nanjing Novoacine Bio-Technology Co., Ltd., dated 2024)
Like-named read-outs stand apart in the source and are kept apart here.

T1: CD25 on CD4+CD25+ Treg cells isolated from human PBMCs (human, UniProt P01589 22-272)
T1 sequence (looked up): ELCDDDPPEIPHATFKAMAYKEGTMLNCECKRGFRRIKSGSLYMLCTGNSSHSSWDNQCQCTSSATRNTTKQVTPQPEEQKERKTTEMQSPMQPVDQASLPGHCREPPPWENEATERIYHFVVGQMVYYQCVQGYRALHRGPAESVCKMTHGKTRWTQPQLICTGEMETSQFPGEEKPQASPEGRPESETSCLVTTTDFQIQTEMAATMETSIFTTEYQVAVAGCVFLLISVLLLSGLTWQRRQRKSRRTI

T2: human CD25 (NP_000408.1) (Met 1-Cys 213) C-terminally fused with 6-histidine tag (human, UniProt P01589 22-213)
T2 construct: range 1-213; Expressed in CHO-K1 cells; also called human CD25-his
T2 sequence: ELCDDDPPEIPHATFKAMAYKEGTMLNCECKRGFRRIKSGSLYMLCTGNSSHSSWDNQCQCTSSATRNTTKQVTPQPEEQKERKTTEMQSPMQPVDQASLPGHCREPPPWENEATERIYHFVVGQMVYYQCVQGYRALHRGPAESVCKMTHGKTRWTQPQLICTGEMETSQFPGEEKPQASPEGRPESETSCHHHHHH

T3: Mouse CD25-his (UniProtKB-P01590, Met1-Lys213) (mouse, UniProt P01590 22-213)
T3 construct: range 1-213; Range begins at Met1 (includes the signal peptide); not shown: his tag
T3 sequence (looked up): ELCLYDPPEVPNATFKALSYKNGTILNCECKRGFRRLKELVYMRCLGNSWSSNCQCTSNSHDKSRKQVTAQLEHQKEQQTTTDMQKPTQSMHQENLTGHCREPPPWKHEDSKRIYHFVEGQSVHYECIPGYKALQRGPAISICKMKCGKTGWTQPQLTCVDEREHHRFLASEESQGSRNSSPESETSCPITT

T4: human CD25 on CHO-K1/hCD25 cells (human, UniProt P01589 22-272)
T4 construct: whole, on cells; The construct of the cell line is not described
T4 sequence (looked up): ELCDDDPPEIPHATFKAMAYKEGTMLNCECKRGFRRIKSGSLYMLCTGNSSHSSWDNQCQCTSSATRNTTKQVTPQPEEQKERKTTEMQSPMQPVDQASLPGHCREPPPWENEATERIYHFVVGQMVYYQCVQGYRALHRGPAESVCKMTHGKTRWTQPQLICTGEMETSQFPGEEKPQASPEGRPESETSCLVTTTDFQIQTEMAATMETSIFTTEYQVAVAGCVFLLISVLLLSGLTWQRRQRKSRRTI


Columns and labels:
[1] = biological target: T1, CD25 on CD4+CD25+ Treg cells isolated …; assay: cell-based or functional assay
[2] = biological target: T5, cyno CD25-his (NCBI-H6WS54, Met1-Arg213) (cyno); assay: ELISA, cyno CD25-his coated
T5 construct: range 1-213; Range begins at Met1 (includes the signal peptide)

[3] = biological target: T2, human CD25 (NP_000408.1) (Met 1-Cys …); assay: ELISA, human CD25-his coated
[4] = biological target: T3, Mouse CD25-his (UniProtKB-P01590, …); assay: ELISA, mouse CD25-his coated
[5] = biological target: T4, human CD25 on CHO-K1/hCD25 cells; assay: flow cytometry on CHO-K1/hCD25 cells
[6] = biological target: T2, human CD25 (NP_000408.1) (Met 1-Cys …); assay: SPR (BIAcore X100), human CD25-his captured by anti-histidine antibody, antibody as analyte, 1:1 model
[7] = biological target: T1, CD25 on CD4+CD25+ Treg cells isolated …; assay: cell-based or functional assay; remark: listed apart in the source
[8] = biological target: T2, human CD25 (NP_000408.1) (Met 1-Cys …); assay: SPR (BIAcore X100), human CD25-his captured by anti-histidine antibody, antibody as analyte, 1:1 model; remark: listed apart in the source

Binder	EC50 [2] [µg/mL]	EC50 [3] [µg/mL]	Relative activity (%) compared with 686 [3] [%]	EC50 [5] [µg/mL]	Relative activity (%) compared with 686 [5] [%]	Kd [6] [nM]	koff [6] [s⁻¹]	kon [6] [M⁻¹ s⁻¹]	Kd [8] [nM]	koff [8] [s⁻¹]	kon [8] [M⁻¹ s⁻¹]	EC50, killing Tregs in vitro (ADCC reporter, jurkat/CD16a/NFAT-luc) [1] [µg/mL]	Relative activity (%) compared with 686, killing Tregs in vitro [1] [%]	binding result [4]	EC50, killing Tregs in vitro (ADCC reporter, jurkat/CD16a/NFAT-luc) [7] [µg/mL]
chimeric antibody 2046-111H2L1 (antibody, human IgG1, kappa, V domains shown, Chimeric, human IgG1/kappa) VH: DVQLQESGPGLVKPSQSLSLTCTVTGHSITSDYAWNWIRQFPGNKLEWMGYISYSGSTIYNPSLKSRISITRDTSKNQFFLQLNSVTTEDTATYYCARWLLQNYYAMDYWGQGTSVTVSS VL: DVVMTQTPLSLPVSLGDQASISCRSSQSLVHSNGNTYLHWYLRKPGQSPKLLIYKVSNRFSGVPDRFSGSGSGTDFTLKISRVEAEDLGVYFCSQSTHVPLTFGAGTKLELKR	0.0447	0.0989	105	0.00109	132	0.819	0.000431	526000	–	–	–	89.8	145	no binding (tested: starting at 100 ng/mL)	–
chimeric antibody 2046-24H2L1 (antibody, human IgG1, kappa, V domains shown, Chimeric, human IgG1/kappa; also called 2046-24ix) VH: DVQLQESGPGLVKPSQSLSLTCTVTGYSITSDYAWNWIRQFPGNKLEWMGYISYGGTTIYNPSLKSRISITRDTSKNQFFLQLNSVTTEDTATYYCARWLLQNYYAMDYWGQGTSVTVSS VL: DVVMTQTPLSLPVSLGDQASISCRSSQSLVHSNGNTYLHWYLQKPGQSPKVLIYKVSNRFSGVPDRFSGSGSGTDFTLKISRVEAEDLGVYFCSQNTHVPLTFGAGTKLELKR	0.0424	0.106	98.2	0.00143	131	7.63	0.00349	458000	–	–	–	26.5	491	no binding (tested: starting at 100 ng/mL)	–
chimeric antibody 2046-2H1L1 (antibody, human IgG1, kappa, V domains shown, Chimeric (murine V, human IgG1/kappa); also called 2046-2ix) VH: DVQLQESGPGLVKPSQSLSLTCTVTGYSITSDYAWNWIRHFPGNKLEWMGYITYSGSTVYNPSLKSRISITRDTSKNHFFLQLNSVTTEDTATYYCARWLLQIYYAMDYWGQGTSVTVSS VL: DVVMTQTPLSLPVSLGDQASISCRSSQSLVHSNGNTYLHWYLQKPGQSPKLLIYKVSNRFSGVPDRFSGSGSGTDFTLKISRVEAEDLGVYFCSQSTHVPLTFGAGTKLELKR	0.0594	0.105	99	0.00192	63.8	4.27	0.00318	745000	–	–	–	22.2	584	no binding (tested: starting at 100 ng/mL)	–
chimeric antibody 2046-61H1L2 (antibody, human IgG1, kappa, Chimeric, human IgG1/kappa; also called 2046-61ix) heavy: not shown light: DVVMTQTPLSLPVSLGDQASISCRSSQSLVHSNGNTYLHWNLQKPGQSPKLLIYKVSNRFSGVPDRFSGSGSGTDFTLKISRVEAEDLGVYFCSQSTHVPLTFSAGTKLELKRTVAAPSVFIFPPSDEQLKSGTASVVCLLNNFYPREAKVQWKVDNALQSGNSQESVTEQDSKDSTYSLSSTLTLSKADYEKHKVYACEVTHQGLSSPVTKSFNRGEC	0.0601	0.144	72.2	0.00114	107	9.44	0.0121	1.28e+06	–	–	–	34.1	380	no binding (tested: starting at 100 ng/mL)	–
chimeric antibody 2047-10H1L2 (antibody, human IgG1, kappa, V domains shown, Chimeric, human IgG1/kappa; also called 2047-10ix) VH: QVQLQQSGPELVRPGVSVKISCKGSGYTFTDYAMHWVKQSHAKSLEWIGVISTYNGNTNYNQKFKGKATMTVDKSSSTAYMELARLTSEDSAIYYCARSYGNYPFDYWGQGTTLTVSS VL: DIKMTQSPSSMYASLGERVTITCKASQDINSYLSWFQQKPGKSPKTLIYRANRLVDGVPSRFSGSGSGQDYSLTISSLEYEDMGIYYCLQYDEFPYTFGGGTKLEIKR	2.6	0.186	56	0.00246	120	15.5	0.0122	788000	–	–	–	41.4	314	no binding (tested: starting at 100 ng/mL)	–
humanized antibody 2046-18H1L1-m2 (antibody, human IgG1, kappa, V domains shown) VH: EVQLQESGPGLVKPSQTLSLTCTVSGYSITSDYAWNWIRQPPGKGLEWIGYISYSGITIYNPSLKSRVTISRDTSKNQFSLKLSSVTAADTAVYYCARWLLQIYYAMDYWGQGTLVTVSS VL: EIVLTQSPGTLSLSPGERATLSCSSSQSLVHSNGNTYLHWYQQKPGQAPRLLIYKVSNRFSGIPDRFSGSGSGTDFTLTISRLEPEDFAVYYCSQSTHVPLTFGQGTKLEIKR	–	–	–	–	–	–	–	–	2.45	0.00137	560000	–	–	–	82.6

More lines, main results first:

EC50 [2] [µg/mL]	EC50 [3] [µg/mL]	Relative activity (%) compared with 686 [3] [%]	EC50 [5] [µg/mL]	Relative activity (%) compared with 686 [5] [%]	Kd [6] [nM]	koff [6] [s⁻¹]	kon [6] [M⁻¹ s⁻¹]	Kd [8] [nM]	koff [8] [s⁻¹]	kon [8] [M⁻¹ s⁻¹]	Binder	EC50, killing Tregs in vitro (ADCC reporter, jurkat/CD16a/NFAT-luc) [1] [µg/mL]	Relative activity (%) compared with 686, killing Tregs in vitro [1] [%]	binding result [4]	EC50, killing Tregs in vitro (ADCC reporter, jurkat/CD16a/NFAT-luc) [7] [µg/mL]
0.0549	0.103	101	0.00167	73.3	2.45	0.00933	3.8e+06	–	–	–	chimeric antibody 2046-36H2L1 (antibody, human IgG1, kappa, V domains shown, Chimeric, human IgG1/kappa; also called 2046-36ix) VH: QIQLVQSGPELKKPGETVRISCKASGYTFTTAGMQWVQKMPGKGLKWIGWINTHSGVPKYAEDFKGRFAFSLETSASTAYLQISNLKNEDTATYFCASDYAFGYWGQGTLVTVSA VL: not shown	52.4	248	no binding (tested: starting at 100 ng/mL)	–
0.0483	0.102	102	0.00171	110	0.703	0.000326	463000	–	–	–	chimeric antibody 2046-18H1L1 (antibody, human IgG1, kappa, V domains shown, Chimeric, human IgG1/kappa; also called 2046-18ix) VH: DVQLQESGPGLVKPSQSLSLTCTVTGYSITSDYAWNWIRQFPGNKLEWMGYISYSGITIYNPSLKSRISITRDTSKNQFFLQLNSVTTEDTATYYCARWLLQIYYAMDYWGQGTSVTVSS VL: DVVMTQTPLSLPVSLGDQASISCSSSQSLVHSNGNTYLHWYLHKPGQSPKLLIYKVSNRFSGVPDRFSGSGSGTDFTLKISRVEAEDLGVYFCSQSTHVPLTFGAGTKLELKR	31.7	410	no binding (tested: starting at 100 ng/mL)	–
0.189	0.111	93.6	0.00143	205	0.308	7.26e-05	236000	–	–	–	chimeric antibody 2047-3H8L2 (antibody, human IgG1, kappa, V domains shown, Chimeric, human IgG1/kappa; also called 2047-3ix) VH: QVQLKQSGAELVKPGASVKMSCKTSGYTFTDYVISWVKQRTGQGLEWIGEIYPGSGSTYYNEKFKGKATLTADISSNTAYMQLSSLTSEDSAVYFCASINFDYWGHGTTLTVSS VL: DIVMTQSPATLSVTPGDRVSLSCRASQSISDYLHWYQQKSHESPRLLIKYASQSISGIPSRFSGSGSGSDFTLSINSVEPEDVGVYYCQNGHSFPYTFGGGTKLEIKR	857	15.2	no binding (tested: starting at 100 ng/mL)	–
